B1: RNF26, wild type (coIP of Figures 5A and 5B) [not stated] / TOLLIP (endogenous) [human (endogenous in a human melanoma cell line and in HEK293T)] (parent)
chain 1: MEAVYLVVNGLGLVLDVLTLVLDLNFLLVSSLLASLAWLLAFVYNLPHTVLTSLLHLGRGVLLSLLALIEAVVRFTCGGLQALCTLLYSCCSGLESLKLLGHLASHGALRSREILHRGVLNVVSSGHALLRQACDICAIAMSLVAYVINSLVNICLIGTQNLFSLVLALWDAVTGPLWRMTDVVAAFLAHISSSAVAMAILLWTPCQLALELLASAARLLASFVLVNLTGLVLLACVLAVTVTVLHPDFTLRLATQALSQLHARPSYHRLREDVMRLSRLALGSEAWRRVWSRSLQLASWPNRGGAPGAPQGDPMRVFSVRTRRQDTLPEAGRRSEAEEEEARTIRVTPVRGRERLNEEEPPGGQDPWKLLKEQEERKKCVICQDQSKTVLLLPCRHLCLCQACTEILMRHPVYHRNCPLCRRGILQTLNVYL
chain 2: not shown
B2: RNF26, wild type (coIP of Figures 5A and 5B) [not stated] / EPS15 (endogenous) [human (endogenous in a human melanoma cell line and in HEK293T)] (parent)
chain 1: B1 chain 1
chain 2: MAAAAQLSLTQLSSGNPVYEKYYRQVDTGNTGRVLASDAAAFLKKSGLPDLILGKIWDLADTDGKGILNKQEFFVALRLVACAQNGLEVSLSSLNLAVPPPRFHDTSSPLLISGTSAAELPWAVKPEDKAKYDAIFDSLSPVNGFLSGDKVKPVLLNSKLPVDILGRVWELSDIDHDGMLDRDEFAVAMFLVYCALEKEPVPMSLPPALVPPSKRKTWVVSPAEKAKYDEIFLKTDKDMDGFVSGLEVREIFLKTGLPSTLLAHIWSLCDTKDCGKLSKDQFALAFHLISQKLIKGIDPPHVLTPEMIPPSDRASLQKNIIGSSPVADFSAIKELDTLNNEIVDLQREKNNVEQDLKEKEDTIKQRTSEVQDLQDEVQRENTNLQKLQAQKQQVQELLDELDEQKAQLEEQLKEVRKKCAEEAQLISSLKAELTSQESQISTYEEELAKAREELSRLQQETAELEESVESGKAQLEPLQQHLQDSQQEISSMQMKLMEMKDLENHNSQLNWCSSPHSILVNGATDYCSLSTSSSETANLNEHVEGQSNLESEPIHQESPARSSPELLPSGVTDENEVTTAVTEKVCSELDNNRHSKEEDPFNVDSSSLTGPVADTNLDFFQSDPFVGSDPFKDDPFGKIDPFGGDPFKGSDPFASDCFFRQSTDPFATSSTDPFSAANNSSITSVETLKHNDPFAPGGTVVAASDSATDPFASVFGNESFGGGFADFSTLSKVNNEDPFRSATSSSVSNVVITKNVFEETSVKSEDEPPALPPKIGTPTRPCPLPPGKRSINKLDSPDPFKLNDPFQPFPGNDSPKEKDPEIFCDPFTSATTTTNKEADPSNFANFSAYPSEEDMIEWAKRESEREEEQRLARLNQQEQEDLELAIALSKSEISEA
B3: RNF26, wild type (coIP of Figures 5A and 5B) [not stated] / USP15 (endogenous) [human (endogenous in a human melanoma cell line and in HEK293T)] (parent)
chain 1: B1 chain 1
chain 2: MAEGGAADLDTQRSDIATLLKTSLRKGDTWYLVDSRWFKQWKKYVGFDSWDKYQMGDQNVYPGPIDNSGLLKDGDAQSLKEHLIDELDYILLPTEGWNKLVSWYTLMEGQEPIARKVVEQGMFVKHCKVEVYLTELKLCENGNMNNVVTRRFSKADTIDTIEKEIRKIFSIPDEKETRLWNKYMSNTFEPLNKPDSTIQDAGLYQGQVLVIEQKNEDGTWPRGPSTPKSPGASNFSTLPKISPSSLSNNYNNMNNRNVKNSNYCLPSYTAYKNYDYSEPGRNNEQPGLCGLSNLGNTCFMNSAIQCLSNTPPLTEYFLNDKYQEELNFDNPLGMRGEIAKSYAELIKQMWSGKFSYVTPRAFKTQVGRFAPQFSGYQQQDCQELLAFLLDGLHEDLNRIRKKPYIQLKDADGRPDKVVAEEAWENHLKRNDSIIVDIFHGLFKSTLVCPECAKISVTFDPFCYLTLPLPMKKERTLEVYLVRMDPLTKPMQYKVVVPKIGNILDLCTALSALSGIPADKMIVTDIYNHRFHRIFAMDENLSSIMERDDIYVFEININRTEDTEHVIIPVCLREKFRHSSYTHHTGSSLFGQPFLMAVPRNNTEDKLYNLLLLRMCRYVKISTETEETEGSLHCCKDQNINGNGPNGIHEEGSPSEMETDEPDDESSQDQELPSENENSQSEDSVGGDNDSENGLCTEDTCKGQLTGHKKRLFTFQFNNLGNTDINYIKDDTRHIRFDDRQLRLDERSFLALDWDPDLKKRYFDENAAEDFEKHESVEYKPPKKPFVKLKDCIELFTTKEKLGAEDPWYCPNCKEHQQATKKLDLWSLPPVLVVHLKRFSYSRYMRDKLDTLVDFPINDLDMSEFLINPNAGPCRYNLIAVSNHYGGMGGGHYTAFAKNKDDGKWYYFDDSSVSTASEDQIVSKAAYVLFYQRQDTFSGTGFFPLDRETKGASAATGIPLESDEDSNDNDNDIENENCMHTN

Variants of: B1
Assay: coIP
Parameters: reference not given here
Details: with TOLLIP (endogenous) [human (endogenous in a human melanoma cell line and in HEK293T)]; HEK293T cells; n = 3; read off a plot

Row | percent of parent [% Co-IP] | Variant
1 | 12 | chain 1 I382R

Variants of: B2
Assay: coIP
Details: with EPS15 (endogenous) [human (endogenous in a human melanoma cell line and in HEK293T)]; HEK293T cells; n = 3; read off a plot

Row | percent of parent [% Co-IP] | Variant
2 | 22 | chain 1 I382R

Variants of: B3
Assay: coIP
Details: with USP15 (endogenous) [human (endogenous in a human melanoma cell line and in HEK293T)]; HEK293T cells; n = 3; read off a plot

Row | percent of parent [% Co-IP] | Variant
3 | 27 | chain 1 I382R

— article PMC4930482
